Results on 26 sequences are retold here after the DeepSol protein solubility set.

The data set is described as follows: soluble on expression in E. coli; label from the status in PepcDB or PDB records.
As for “REEELNTEKVVAAIANPVENEVRKVWEDVVEKIEQRVAVIEQASHKLLQNKVSEEILSKAKVEAHKLAGSLGMFGSDEGSQIAQEIESLLDNGKKLKASGGKHLGQVVEALHQELENLKSG”, the “soluble on expression in E. coli” value is reported as “soluble”.
For the sequence “REQFGRDVMVVVDLSGSMAEKDFTSTNGLKISRLDAVKKVLNDFVKTRKGDRLGLILFGDAAFVQTPFTADHKVWLDLLNQTHVEMAGKSTHLGDAIGLTIKRFEDSNNSQPLSTTSREKVAIILTDGNDTDSYVPPMDAAKVAKVKGVRIHMIAIGDPQTVGEQALDMDTINTIADASGGQAFQALNQDELINAYAEISKLEPQLYQSTTYRT”, the “soluble on expression in E. coli” value is on record as “not soluble”.
Regarding “REVADTAYDRTLLASARAIADGLYEKDGTLRADVPYVALDTFAYDSAGRIFYQVNDIHGRMISGYENLPAAPADTLRTDDYPALAKFYDGVYQGVDVRVVSLLQPVSEPSMSGMAEIRVAETEGARERMARS”, the “soluble on expression in E. coli” value is reported as “not soluble”.
As for “RHMRIAVIGGGSSYTPELVKGLLDISEDVRIDEVIFYDIDEEKQKIVVDFVKRLVKDRFKVLISDTFEGAVVDAKYVIFQFRPGGLKGRENDEGIPLKYGLIGQETTGVGGFSAALRAFPIVEEYVDTVRKTSNATIVNFTNPSGHITEFVRNYLEYEKFIGLCNVPINFIREIAEMFSARLEDVFLKYYGLNHLSFIEKVFVKGEDVTEKVFENLKLKLSNIPDEDFPTWFYDSVRLIVNPYLRYYLMEKKMFKKISTHELRAREVMKIEKELFEKYRTAVEIPEELTKRGGSMYSTAAAHLIRDLETDEGKIHIVNTRNNGSIENLPDDYVLEIPCYVRSGRVHTLSQGKGDHFALSFIHAVKMYERLTIEAYLKRSKKLALKALLSHPLGPDVEDAKDLLEEILEANREYVKLG”, the entry is “soluble”; as for “RHNLIQRKRELDKQNELYRAIISASFAFVFQIDTEARFSFVSPSVEDFTGYRPDMLNGEPISILGSDEQAIKEARDYLARVLNDGEAIQVRGHPIETRSGNTVYGDIRAEPIYEPSVASSARTTENIIGAQVMVRDAS”, “not soluble”.
As for “RKEIQPIRELAKAATLMSSRLDVPEVSERGSNELKAAVRAFNKMNRRIDSHIKDREMLFSAISHDLKTPIACLKLRAEMLDDDADRERFIRLSNDLDLMVKGALQCIKETDIHEEIEPINFTQLIQHISSNIADAPDTIRIHGEIRTHFAGK”, the entry is “not soluble”; as for “RLHRLPRDCQELFQVGERQSGLFEIQPQGSPPFLVNCKMTSDGGWTVIQRRHDGSVDFNRPWEAYKAGFGDPHGEFWLGLEKVHSITGDRNSRLAVQLRDWDGNAELLQFSVHLGGEDTAYSLQLTAPVAGQLGATTVPPSGLSVPFSTWDQDHDLRRDKNCAKSLSGGWWFGTCSHSNLNGQYFRSIPQQRQKLKKGIFWKTWRGRYYPLQATTMLIQPMAAEAAS”, “soluble”; as for “RLSDTLMKQALSSVITQEKKRLKSQPKSIAQDIQPPNSMIKNALDEKDSHPFGDCFSDDEFLAIHLYTSCLYRPINHHLRYAPKNDVAPVVEAMNSGLAKLAQYPDYQVSGQLHRGIKQKMDDGEVMSRFKPGNTYRDDAFMSTSTRMDVTEEFTSDVTLHLQSSSAVNIGPFSKNPYEDEALIPPLTPFKVTGLHKQDDRWHVHLNEIAESSDE”, “not soluble”.
Consider “RPVREVGMYNMAMLMRSTGQSSFGQSVRIAENFLNEFPRSSHREQMAAILVESYFTGKDYNSSLRSIQKIAQPTASILAAKQFVLNRMAEQKEAAGYDSEALSFVSSSISMGNKGEYFPEAYFLRGNLRYRAGDFPTAAADYRAYISAAGDRDAANLPLGYYRLGYSLFNAERYDMALEAFKEYVSRSGIAPNLSADAYARIGDCRYMKRDFHGAREAYSMAYRVYPSGGDYALLRRARLEGLAKQYADQIQTLDKLIREFPDSRHLTAALYEKGCGAVLSGKHNVAEEAFNAVVKRSPDSREARQSSLQLGLLYYNTGRTKEAIRTYQRIIDRYPRSEETTVALSDLRSIYLEEDRIDEYSTYVRGLKDKVSIAPSETEQLGFLSAERKYRRRQPDARRDLEAYLERYPQGSDRHKAELYLADLDYQAGNADAAYNRYSRLVNSPGLPEDYKIDARLRLGRMQYERKEYKAALQSFQSVLDTDGAEAVRDQAVQGVTESAYADKDYRRVIDVIAGLKNQAALPHTLRLYRAKSYQALKMNREAIADYELLAEDFSTATGAEAVVMQAQLEMEAKRLSKAKSILEKFIAKSTPQQYWLARGFILLSDIYKKEGDTFTARQYLESLEKNYPNHEDDIHEQIAQRLE”, for which the “soluble on expression in E. coli” value is “not soluble”.
For “RQGCEARRAHEHLIRLLLEQGKCPEDGWDESTLELFLHELAVMDSNNFLGNCGVGEREGRVASALVARRHYRFIHGIGRSGDISAVQPKAAGSSLLNKITNSLVLNVIKLAGVHSVASCFVVPMATGMSLTLCFLTLRHKRPKAKYIIWPRIDQKSCFKSMVTAGFEPVVIENVLEGDELRTDLKAVEAKIQELGPEHILCLHSTTACFAPRVPDRLEELAVICANYDIPHVVNNAYGLQSSKCMHLIQQGARVGRIDAFVQSLDKNFMVPVGGAIIAGFNEPFIQDISKMYPGRASASPSLDVLITLLSLGCSGYRKLLKERKEMFVYLSTQLKKLAEAHNERLLQTPHNPISLAMTLKTIDGHHDKAVTQLGSMLFTRQVSGARAVPLGNVQTVSGHTFRGFMSHADNYPCAYLNAAAAIGMKMQDVDLFIKRLDKCLNIVRKEQTRA”, the “soluble on expression in E. coli” value was “soluble”.
Take “RQIQKKIESGELKAAPEIVEADAECCGQHEICEKESLLAAVSKKIEYYDDEELDRFRGRPSNGYNEEEVEEFREIMYTCKEDEVAGWSRSLQLRGIELPDELKDELFLIVGERRFK”: the “soluble on expression in E. coli” value is on record as “not soluble”.
Consider “RQTRIMDSAQYAEFCESRQLSFSKKASKFRDWLDCSSMEIKPNVVAMEILAYLAYETVAQLVDLALLVRQDMVTKAGDPFSHAISATFIQYHNSAESTAACGVEAHSDAIQPCHIREAIRRYSHRIGPLSPFTNAYRRNGMAFLAC”, for which the “soluble on expression in E. coli” value is on record as “soluble”.
As to “RRMVALYDYDPRESSPNVDVEAELTFCTGDIITVFGEIDEDGFYYGELNGQKGLVPSNFLEEV”, the “soluble on expression in E. coli” value is given as “soluble”.
In the case of “RSFLPPFNEGSFTINVSTLPGISLEESDRMGRMAEEILLSVPEVQTVGRKTGRAELDEHALGVNVSEIEVPFVLKDRSKDEVLADIREKLKVLPGVNIEIGQPISHRIDAMLSGTRANIAIKLFGPDLNRLFAIGNQIKTSVHDVKGVADLNVEQQVERPQLKIVPKREMLAKYGLTPASFAEIVNVMLAGEVVSQVYEGNRSFDLSLKVNDESRESADRIRDLIIDAGGRKIPFAYVADIVSASGPNTINRENVSRKIVVSANVAGRDLRSVVNDIQERIDADITLPEGYHIEYGGQFESEQAASRT”, the “soluble on expression in E. coli” value was “not soluble”.
The result for “RSFYNLGMDYKYRFHRFSIQGEAALGISGMAFMNQVLYSPLQDIRLMLVHRYYSHDYWAMFAHSFSEGSSVQNENGWYLAASVNPFNRWTFFVSADLFSFPWWRYRISKASKGVDLLFQADYVPSKTVDMYVNYRYKQKERDVTGTQGKVILPTYHHRLRYRLNYLPCSSLSLRTTVDYNHFHSSGKTAGQGYQLTQTAGWKLPWLPLTTELQGSYFHTDDYDSRIYIYEKGLLYSFYTPSFQGEGIRLAIHFRYDMNKHWTAIAKLGQTTYFDRDEIGSGNDLIRGNKKTDVQMQLRLKF” reads “not soluble”; that for “RTHIIGIDQTLVDIEAKVDDAFIEKYGLSKGHSLVIDNDKAEMLYNELKDNNMISNEFAGGTIGNTLHNYSVLADDKSTLLGVMSEDIHIGSYSYRYLCNTSSRMDLNYLQPVPGAIGRCFALISEDGERTFAISEGDMNQLRAESIPEKIFKNASALVLTAYLVRCKEGDPMPEATMKAIEYAKKYDVPVVLTMGTKFVVQDDPQYWRDFLNDHVTVVAMNEEEGEALTGATDPLEAANKTLEWVDLVLCTAGPVGLYMAGYTEDSAKRETSLPLLPGTIAEFNQFEFSRPAVKDSCENPIKVFSHISPYMGGPEKIKNTNGAGDGALSALLHDMAANHYHRNNVPNSSKHQHSFLTYSSFSQVCKYSNRVSFEVLAQHSPRLSRGLPEREDSLEEAYWE”, “soluble”.
As for “SAAPPGEYFSVGSQVSCRTCQEQRLQGEVVAFDYQSKMLALKCPSSSGKPNHADILLINLQYVSEVEIINDRTETPRPLASLNVSKLASKARTEKEEKLSQAYAISAGVSLEGQQLFQTIHKTIKDCKWQEKNIVVMEEVVITPPYQVENCKGKEGSALSHVRKIVEKHFRDVESQKILQRSQAQQPQKEAALSS”, the entry is “soluble”; as for “SAATMKKAAAEDVNVTFEDQQKINKFARNTSRITELKEEIEVKKKQLQNLEDACDDIMLADDDCLMIPYQIGDVFISHSQEETQEMLEEAKKNLQEEIDALESRVESIQRVLADLKVQLYAKFGSNINLEADES”, “soluble”.
For the sequence “SAEKLFTPLKVGAVTAPNRVFMAPLTRLRSIEPGDIPTPLMGEYYRQRASAGLIISEATQISAQAKGYAGAPGLHSPEQIAAWKKITAGVHAEDGRIAVQLWHTGRISHSSIQPGGQAPVSASALNANTRTSLRDENGNAIRVDTTTPRALELDEIPGIVNDFRQAVANAREAGFDLVELHSAHGYLLHQFLSPSSNQRTDQYGGSVENRARLVLEVVDAVCNEWSADRIGIRVSPIGTFQNVDNGPNEEADALYLIEELAKRGIAYLHMSETDLAGGKPYSEAFRQKVRERFHGVIIGAGAYTAEKAEDLIGKGLIDAVAFGRDYIANPDLVARLQKKAELNPQRPESFYGGGAEGYTDYPSL”, the “soluble on expression in E. coli” value was “soluble”.
On to “SAGVRGLRFVERFGDNTASLIKNAILLDQQKVEVFNIRFKSSRDFTIQIKLNAKGNYKKSEVEKYKSQIGVQDNELGDKEEGTLEADLIFTYTPPASNLFSKSNFDKLTKSINFNTNLKLEMVGKDEVMRKILNSSAFTNNLASVNYPNQAVNLLPYVLYSIL”, for which the “soluble on expression in E. coli” value is reported as “not soluble”.
Consider “SAGVRGLRLVERYTQDTANIINNVIKLDKQKVEAFSIQYKDPKNFRVQVKINAKGNYKKDTVKTYLSQVGLSDGDLNDTGTLEAEIIYTYMPPAASFFSASKFDKLTRAINFNTNLRIQIIGKDSVMTKLLQQSSFVKQLADQKFQDQSINLLPYVLYSI”, for which the “soluble on expression in E. coli” value is given as “not soluble”.
As for “SAKAVRIGAEGYKLKLDGAVQEIDGRSVVLVDVDSITPLMFGGSMKEKAKLLDAKFLRKYYEENKDFFFLSTREEKKMFVTLQLAREYAELVDDQFLRGFFEKALESAQKAF”, the “soluble on expression in E. coli” value is listed as “soluble”.
Regarding “SALSSAASLLGSPLTNDFAVISMSDLLTPLDTIMKRVEAFAKADIVTVIYNPRGSRFPDNIRKAVDIFLRYRNPETAVGIVRNAYRERQSVTITTLSNLNIEDIDMLTTVIIGNSETF”, the “soluble on expression in E. coli” value was “not soluble”.
With “SATTVTLEKCGHNKGYKGLDNCRFCPGSQCCVEDGPESIDSIIDMDAVCKRVTTLGLDVSVTISQDAGRYLCDFTYYTSLYQSHGRSAFVHVPPLGKPYNADQLGRALRAIIEEMLDLLEQSEGKINYCHKH”, the “soluble on expression in E. coli” value was “soluble”.
Regarding “SDCLIVVDTRAAIRRVNRAALTMLGYDEEQLLGMPVGVIFAWERDKERLRTEGLRCFVESIGSSPAEFTFLSSDERRTPVLLSASPMLGRD”, the “soluble on expression in E. coli” value is reported as “not soluble”.
Consider “SDHGSNEIDRHLTPGASPAYIGINKEKKLLYTANYHTAVLSVFQYSNSGKLALVAQTTHKAESLGPRPEQVDGPHPHFFDETPAGNLVSCDLGNDTVDFYRLENNELKHLAQYKNEAGFGDRHIVFSKDGNYFYVVGELSSQINVVKFNENTWEFEDIATYKTIPEDFTEHNGAAALYITNDGKYIYNSNRGHNSITVFKVNDDHTLSLIQRISTFGDFPRDFNWDETQKYVVAANQNT”, for which the “soluble on expression in E. coli” value is “soluble”.
